Results: patent publication US20020160949A1 (WHITEHEAD INSTITUTE FOR BIOMEDICAL RESEARCH, published 2002)

Assays:
[1] = target: T1, murine IL-7Rα (murine, UniProt P16872 21-459); assay: affinity labeling of transfected 293 cells with 125I-TSLP, DSS cross-linking, SDS-PAGE
T1 construct: whole, on cells; Expressed alone on transfected 293 cells; also called murine IL-7Rα alone
T1 sequence (looked up): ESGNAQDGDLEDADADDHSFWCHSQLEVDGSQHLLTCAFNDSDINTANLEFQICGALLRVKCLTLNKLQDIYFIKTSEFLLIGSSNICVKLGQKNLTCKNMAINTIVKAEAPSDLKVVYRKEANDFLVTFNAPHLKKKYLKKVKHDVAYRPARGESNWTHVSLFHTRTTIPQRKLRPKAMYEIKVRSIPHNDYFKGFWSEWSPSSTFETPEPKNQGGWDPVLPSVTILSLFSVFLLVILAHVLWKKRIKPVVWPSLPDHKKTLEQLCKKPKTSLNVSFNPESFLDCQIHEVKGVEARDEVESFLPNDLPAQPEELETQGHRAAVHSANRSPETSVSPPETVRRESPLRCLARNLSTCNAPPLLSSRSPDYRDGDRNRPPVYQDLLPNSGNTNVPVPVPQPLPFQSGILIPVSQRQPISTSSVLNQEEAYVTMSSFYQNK
Procedure: The binding of TSLP to TSLPR polypeptide in the presence of IL-7Rα was examined in affinity labeling assays. Affinity labeling assays were performed by adding 1-5 nM of ¹²⁵I-labeled TSLP to 5×10⁶ 293 cells transfected with expression constructs for murine IL-7Rα, murine TSLPR polypeptide, murine IL-7Rα and murine TSLPR polypeptide, or human IL-7Rα and murine TSLPR polypeptide. Iodinated TSLP was prepared by adding IODO-GEN (Pierce, Rockford, Ill.) and 2 mCi ¹²⁵I to 1 μg of TSLP. A specific activity of approximately 200-300 μCi/μg was obtained by this method. Prior to affinity labeling, 293 cells were transiently transfected using the calcium phosphate method (Eppendorf-5 Prime, Boulder, Colo.). Following a 2 hour incubation with ¹²⁵I-TSLP, cells were cross-linked with 0.1 mg/ml disuccinimidyl suberate (Pierce), lysed in lysis buffer, and the lysates resolved by SDS-PAGE.

[2] = target: T2, TSLP receptors constitutively expressed on NAG8/7 cells; assay: displacement binding of 125I-TSLP by unlabeled TSLP on NAG8/7 cells, Scatchard transformation
T2 construct: also called single class of receptors
Procedure: The binding of TSLP to 293 cells transfected with murine IL-7Rα and murine TSLPR polypeptide, or murine IL-7Rα alone, was analyzed in a displacement binding assay. Following two washes, 1×10⁶transfected 293 cells were incubated in a constant amount of ¹²⁵I-labeled TSLP (approximately 20,000 cpm) and varying amounts of unlabeled TSLP. Following a 3 hour incubation, treated cells were separated from the medium by centrifugation in olive oil and N-butylphthalate. Cell-bound radioactivity was measured using a gamma counter.
Analysis of binding data by Scatchard transformation was performed using the LIGAND computer program (Munson and Rodbard, 1980, Anal. Biochem. 107:220-39). […] Due to the very low binding activity of TSLP for cells expressing TSLPR polypeptide alone, it was not possible to determine the Kd for these cells. Displacement binding assays were also performed using NAG8/7 cells, which constitutively express TSLP receptors and proliferate in response to TSLP (Friend et al., supra; Levin et al., supra). In these displacement binding assays, 5×10⁶ NAG8/7 cells were incubated in a constant amount of ¹²⁵I-labeled TSLP (approximately 180,000 cpm) and varying amounts of unlabeled TSLP. The remainder of the assay was performed as described herein.

T2 sequence (Q8CII9 20-359): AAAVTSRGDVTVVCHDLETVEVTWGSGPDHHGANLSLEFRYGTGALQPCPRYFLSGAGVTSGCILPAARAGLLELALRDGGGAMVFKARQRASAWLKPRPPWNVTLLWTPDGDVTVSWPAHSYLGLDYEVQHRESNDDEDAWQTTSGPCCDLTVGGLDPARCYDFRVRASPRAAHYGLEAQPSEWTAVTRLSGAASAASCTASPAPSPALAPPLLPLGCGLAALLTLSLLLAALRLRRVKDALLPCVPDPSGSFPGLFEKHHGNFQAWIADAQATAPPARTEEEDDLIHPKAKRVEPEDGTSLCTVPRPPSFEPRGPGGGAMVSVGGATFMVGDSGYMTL

- Kd [2]: ~2.2 nM
B1: Thymic stromal lymphopoietin (TSLP) (ligand, UniProt Q9JIE6 20-140, looked up)
chain: YNFSNCNFTSITKIYCNIIFHDLTGDLKGAKFEQIEDCESKPACLLKIEYYTLNPIPGCPSLPDKTFARRTREALNDHCPGYPETERNDGTQEMAQEVQNICLNQTSQILRLWYSFMQSPE
- binding result [1]: no binding (tested: 1-5 nM of 125I-labeled TSLP)
